Laboratory results as given in publication PMC1831719, “Elucidating the Ticking of an In Vitro Circadian Clockwork” (PLoS Biology, 2007).

Biological target: the molecule itself
Test: negative-stain electron microscopy with image classification; aliquots every 3 h from the oscillating KaiA/KaiB/KaiC mixture (50 ng/ul KaiA, 50 ng/ul KaiB, 200 ng/ul KaiC, 1 mM ATP, 30 °C); 0.75% uranyl formate; particles sorted into four meta classes at seven phases

B1: KaiC (natural protein, S. elongatus, UniProt Q79PF4 1-519, looked up)
chain: MTSAEMTSPNNNSEHQAIAKMRTMIEGFDDISHGGLPIGRSTLVSGTSGTGKTLFSIQFLYNGIIEFDEPGVFVTFEETPQDIIKNARSFGWDLAKLVDEGKLFILDASPDPEGQEVVGGFDLSALIERINYAIQKYRARRVSIDSVTSVFQQYDASSVVRRELFRLVARLKQIGATTVMTTERIEEYGPIARYGVEEFVSDNVVILRNVLEGERRRRTLEILKLRGTSHMKGEYPFTITDHGINIFPLGAMRLTQRSSNVRVSSGVVRLDEMCGGGFFKDSIILATGATGTGKTLLVSRFVENACANKERAILFAYEESRAQLLRNAYSWGMDFEEMERQNLLKIVCAYPESAGLEDHLQIIKSEINDFKPARIAIDSLSALARGVSNNAFRQFVIGVTGYAKQEEITGLFTNTSDQFMGAHSITDSHISTITDTIILLQYVEIRGEMSRAINVFKMRGSWHDKAIREFMISDKGPDIKDSFRNFERIISGSPTRITVDEKSELSRIVRGVQEKGPES
notes: KaiC, circadian clock protein of Synechococcus elongatus; In the cycling reaction KaiC oscillates between hypo- and hyperphosphorylated forms (sites T426, S431, T432); also called KaiC hexamer; P-KaiC; source: E. coli, purified
stoichiometry N: 6
